Results: patent publication US20070286806A1, “Methods and Compositions for Modulating a Steroid Receptor” (Mount Sinai Hospital, priority 2004, published 2007)

Key:
PR [1] = target: T1, PR (Homo sapiens, UniProt P06401); assay: GST in vitro pulldown assay with 35S-labeled PSF and GST-PR fusion proteins; type: binding; conditions: 35S-labeled PSF
T1 construct: made in house; host or cells: E. coli BL21(DE3)pLysS (GST-PR); rabbit reticulocyte lysate (35S His-PSF)
T1 sequence (P06401 556-650): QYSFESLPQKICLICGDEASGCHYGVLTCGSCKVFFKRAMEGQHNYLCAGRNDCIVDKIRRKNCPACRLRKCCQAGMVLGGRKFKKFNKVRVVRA
Experimental: (§1) FIG. 3. Mapping PSF and PR interaction site. (A) GST or GST-PR fusion proteins bound to glutathione-sepharose beads were incubated with ^35S-labeled PSF and binding of PSF was assessed by autoradiography. (B) GST or GST-PSF fusion proteins bound to glutathione-sepharose beads were incubated with ^35S-labeled PRB and binding of PRB was assessed by autoradiography. Input represents 10% of the material used for each sample in A and B. (C) GST-PSF fusion proteins used in assay B were separated on SDS gel and stained with commassie blue.
(§2) For immunoprecipitation of the endogenous PR and PSF, T47D cells cultured in 150 mm dishes were lysed in 800 μl NETN buffer containing 150 mM NaCl plus protease inhibitor cocktail. Cell lysate were then incubated with 5 μg of PR or PSF, or control mouse IgG at 4° C. overnight, followed by the addition of 30 μl of protein A/G PLUS-agarose beads (Santa Cruz) for another two hours at 4° C. Resins were washed with NETN containing 250 mM NaCl and eluted with 1×Laemmli buffer. […] Gels were treated with Enhancer (NEN, Boston, US) dried and analyzed by autoradiography. • Cell culture and transient transfection: SHM cells and 293T cells were maintained in DMEM plus 5% FCS (Sigma) as described before (22). […] Luciferase activity was determined by using the luciferin reagent (Promega) according to manufacture's protocol. […]

PR [2] = assay: as above; type: binding; conditions: 35S-labeled PSF
Experimental: as §1, §2

B1: polypyrimidine tract binding protein-associated splicing factor (protein)
chain: MSRDRFRSRGGGGGGFHRRGGGGGRGGLHDFRSPPPGMGLNQNRGPMGPGPGQSGPKPPIPPPPPHQQQQQPPPQQPPPQQPPPHQPPPHPQPHQQQQPPPPPQDSSKPVVAQGPGPAPGVGSAPPASSSAPPATPPTSGAPPGSGPGPTPTPPPAVTSAPPGAPPPTPPSSGVPTTPPQAGGPPPPPAAVPGPGPGPKQGPGPGGPKGGKMPGGPKPGGGPGLSTPGGHPKPPHRGGGEPRGGRQHHPPYHQQHHQGPPPGGPGGRSEEKISDSEGFKANLSLLRRPGEKTYTQRCRLFVGNLPADITEDEFKRLFAKYGEPGEVFINKGKGFGFIKLESRALAEIAKAELDDTPMRGRQLRVRFATHAAALSVRNLSPYVSNELLEEAFSQFGPIERAVVIVDDRGRSTGKGIVEFASKPAARKAFERCSEGVFLLTTTPRPVIVEPLEQLDDEDGLPEKLAQKNPMYQKERETPPRFAQHGTFEYEYSQRWKSLDEMEKQQREQVEKNMKDAKDKLESEMEDAYHEHQANLLRQDLMRRQEELRRMEELHNQEMQKRKEMQLRQEEERRRREEEMMIRQREMEEQMRRQREESYSRMGYMDPRERDMRMGGGGAMNMGDPYGSGGQKFPPLGGGGGIGYEANPGVPPATMSGSMMGSDMRTERFGQGGAGPVGGQGPRGMGPGTPAGYGRGREEYEGPNKKPRF
notes: expressed from transfected His-PSF vector or in vitro translated
PR [1]
  binding to GST-PR fusion proteins containing the DBD domain: bound strongly
PR [2]
  binding to other segments of PR: did not bind
